According to patent publication US20190309284A1, “METHODS AND KITS FOR DYNAMIC TARGETED HYPERMUTATION” (Massachusetts Institute of Technology, priority 2018, published 2019):

Tests used:
[1] = promoter strength, Registry of Standard Biological Parts (Anderson collection); cited from earlier work
[2] = system: Kan^R gene with ACG in place of ATG start codon on reporter plasmid; assay: Start codon reversion mutation assay, kanamycin resistance (on-target); format: cell-based, E. coli; conditions: 24 h growth
Experimental: (§1) Mutation assay: To test mutagenesis rates, the control and mutagenic strains (Strep^R) carrying reporter plasmids (Amp^R) were streaked out on LB agar with 100 μg/mL streptomycin and 100 μg/mL ampicillin and grown at 37° C. for 24 hours. Then single colonies were picked in triplicate for each sample and grown in 5 mL LB with 100 μg/mL streptomycin,100 μg/mL ampicillin and 25 mM arabinose (with 10 μg/mL chloramphenicol if the strain contains MP6) at 37° C., 250 r.p.m. for 24 hours. Then 1 mL aliquots of each overnight were pelleted at 6000×g for 3 minutes and resuspended in 1 mL LB to remove arabinose. Then 50 μL of each resuspension was plated on LB agar plates with 50 μg/mL tetrazolium chloride and 200 μg/mL kanamycin, 20 μg/mL tetracycline, 100 μg/mL fosfomycin or 100 μg/mL rifampicin unless otherwise stated. 50 μL of a 100,000-fold dilution of each culture was also plated on LB agar with 100 μg/mL streptomycin, 100 μg/mL ampicillin and 50 μg/mL tetrazolium chloride. After incubating the plates at 37° C. for 48 hours, they were imaged by inverting the plates onto transparencies and scanning on a document scanner at a resolution of 400 d.p.i. The colonies were then counted using the software OpenCFU (3.9.0) (Geissmann Q., PLoS One. 2013; 8(2): e54072), with minimum colony radius set to 3, the maximum colony radius set to 50 and the regular threshold set to 4.
(§2) Mutation Assay: To assess mutagenesis rates, the control (Δung, rApo1, drApo1, and drApo1−T7; TABLE 8) and mutagenic strains (MutaT7 and MP6; TABLE 8) (Strep^R) carrying reporter plasmids (AmpR) were streaked on LB agar with 100 μg/mL streptomycin and 100 μg/mL ampicillin and grown at 37° C. for 24 h in order to obtain clones. Single colonies were picked in triplicate for each sample and used to inoculate 5 mL LB with 100 μg/mL streptomycin, 100 μg/mL ampicillin, and 25 mM arabinose (with 10 μg/mL chloramphenicol for the MP6 strain, TABLE 8), then shaken at 250 r.p.m. and 37° C. for 24 h to accumulate mutations during growth. 1 mL aliquots of each culture were pelleted at 6000×g for 3 min and resuspended in 1 mL LB to remove arabinose. Each resuspension was plated on LB agar plates with 50 μg/mL tetrazolium chloride (a metabolic contrast dye for visualizing colonies) and the antibiotics indicated below to analyze mutation rates and viability: • 50 μL of a 100,000-fold dilution of each resuspension was plated on LB agar with 100 μg/mL streptomycin, 100 μg/mL ampicillin, and 50 μg/mL tetrazolium chloride. For samples from the MP6 strain, owing to lower growth of that strain, 50 μL of a 10,000-fold dilution of each resuspension was plated to obtain a more accurate count. The colony counts from these plates were used to calculate the cell viability (i.e., the number of live, ampicillin resistant cells) in CFU/mL for each sample (FIG. 13D). • 50 μL of each resuspension was plated on LB agar plates with 200 μg/mL kanamycin and 50 μg/mL tetrazolium chloride. The colony counts from these plates were used to calculate the number of kanamycin resistant mutants in CFU/mL for each sample (FIG. 13E). The number of kanamycin resistant mutants in CFU/mL was divided by the number of live ampicillin resistant cells in CFU/mL for each sample to obtain the kanamycin resistant mutation frequency (FIG. 13B). • 50 μL of each resuspension was plated on LB agar plates with 20 μg/mL tetracycline and 50 μg/mL tetrazolium chloride. The colony counts from these plates were used to calculate the number of tetracycline resistant mutants in CFU/mL for each sample. The number of tetracycline resistant mutants in CFU/mL was divided by the number of live ampicillin resistant cells in CFU/mL for each sample to obtain the tetracycline resistant mutation frequency (FIG. 13B). • 50 μL of each resuspension was plated on LB agar plates with 100 μg/mL rifampicin and 50 μg/mL tetrazolium chloride. […]

E. coli = assay: Cell viability (live ampicillin resistant cells) in mutation assay; format: cell-based; conditions: 24 h growth
Experimental: as §1
Mutation Assay: To assess mutagenesis rates, the control (Δung, rApo1, drApo1, and drApo1−T7; TABLE 8) and mutagenic strains (MutaT7 and MP6; TABLE 8) (Strep^R) carrying reporter plasmids (AmpR) were streaked on LB agar with 100 μg/mL streptomycin and 100 μg/mL ampicillin and grown at 37° C. for 24 h in order to obtain clones. Single colonies were picked in triplicate for each sample and used to inoculate 5 mL LB with 100 μg/mL streptomycin, 100 μg/mL ampicillin, and 25 mM arabinose (with 10 μg/mL chloramphenicol for the MP6 strain, TABLE 8), then shaken at 250 r.p.m. and 37° C. for 24 h to accumulate mutations during growth. […]

E. coli genome [3] = assay: Off-target mutagenesis, rifampicin resistance assay; format: cell-based; conditions: 24 h growth
Experimental: as §1, §2

E. coli genome [4] = assay: Off-target mutagenesis, fosfomycin resistance assay; format: cell-based; conditions: 24 h growth
Experimental: as §1, §2

[5] = system: Tet^R gene with inactive ACG start codon downstream of Kan^R on reporter plasmid; assay: Start codon reversion mutation assay, tetracycline resistance (downstream of target); format: cell-based, E. coli; conditions: 24 h growth
Experimental: as §1, §2

[6] = reporter plasmid No T7 promoter + filler DNA
[7] = reporter plasmid T7 promoter + filler DNA
[8] = reporter plasmid T7 promoter + terminator array

Molecule: BBa_J23103: Anderson collection promoter, SEQ ID NO: 5 (DNA CTGATAGCTAGCTCAGTCCTAGGGATTATGCTAGC; listed as DNA, chemistry not fully specified)
- Measured Strength [1]: 0.01

Molecule: BBa_J23108: Anderson collection promoter, SEQ ID NO: 10 (DNA CTGACAGCTAGCTCAGTCCTAGGTATAATGCTAGC; listed as DNA, chemistry not fully specified)
- Measured Strength [1]: 0.51

Molecule: BBa_J23118: Anderson collection promoter, SEQ ID NO: 20 (DNA TTGACGGCTAGCTCAGTCCTAGGTATTGTGCTAGC; listed as DNA, chemistry not fully specified)
- Measured Strength [1]: 0.56

Molecule: BBa_J23102: Anderson collection promoter, SEQ ID NO: 4 (DNA TTGACAGCTAGCTCAGTCCTAGGTACTGTGCTAGC; listed as DNA, chemistry not fully specified)
- Measured Strength [1]: 0.86

Molecule: BBa_J23117: Anderson collection promoter, SEQ ID NO: 19 (DNA TTGACAGCTAGCTCAGTCCTAGGGATTGTGCTAGC; listed as DNA, chemistry not fully specified)
- Measured Strength [1]: 0.06

Molecule: BBa_J23104: Anderson collection promoter, SEQ ID NO: 6 (DNA TTGACAGCTAGCTCAGTCCTAGGTATTGTGCTAGC; listed as DNA, chemistry not fully specified)
- Measured Strength [1]: 0.72

Molecule: BBa_J23106: Anderson collection promoter, SEQ ID NO: 8 (DNA TTTACGGCTAGCTCAGTCCTAGGTATAGTGCTAGC; listed as DNA, chemistry not fully specified)
- Measured Strength [1]: 0.47

Molecule: BBa_J23110: Anderson collection promoter, SEQ ID NO: 12 (DNA TTTACGGCTAGCTCAGTCCTAGGTACAATGCTAGC; listed as DNA, chemistry not fully specified)
- Measured Strength [1]: 0.33

Molecule: BBa_J23101: Anderson collection promoter, SEQ ID NO: 3 (DNA TTTACAGCTAGCTCAGTCCTAGGTATTATGCTAGC; listed as DNA, chemistry not fully specified)
- Measured Strength [1]: 0.70

Molecule: BBa_J23113: Anderson collection promoter, SEQ ID NO: 15 (DNA CTGATGGCTAGCTCAGTCCTAGGGATTATGCTAGC; listed as DNA, chemistry not fully specified)
- Measured Strength [1]: 0.01

Molecule: BBa_J23100: Anderson collection promoter, SEQ ID NO: 2 (DNA TTGACGGCTAGCTCAGTCCTAGGTACAGTGCTAGC; listed as DNA, chemistry not fully specified)
- Measured Strength [1]: 1

Molecule: BBa_J23115: Anderson collection promoter, SEQ ID NO: 17 (DNA TTTATAGCTAGCTCAGCCCTTGGTACAATGCTAGC; listed as DNA, chemistry not fully specified)
- Measured Strength [1]: 0.15

Molecule: BBa_J23114: Anderson collection promoter, SEQ ID NO: 16 (DNA TTTATGGCTAGCTCAGTCCTAGGTACAATGCTAGC; listed as DNA, chemistry not fully specified)
- Measured Strength [1]: 0.10

Molecule: BBa_J23112: Anderson collection promoter, SEQ ID NO: 14 (DNA CTGATAGCTAGCTCAGTCCTAGGGATTATGCTAGC; listed as DNA, chemistry not fully specified)
- Measured Strength [1]: 0.00

Molecule: BBa_J23107: Anderson collection promoter, SEQ ID NO: 9 (DNA TTTACGGCTAGCTCAGCCCTAGGTATTATGCTAGC; listed as DNA, chemistry not fully specified)
- Measured Strength [1]: 0.36

Molecule: BBa_J23109: Anderson collection promoter, SEQ ID NO: 11 (DNA TTTACAGCTAGCTCAGTCCTAGGGACTGTGCTAGC; listed as DNA, chemistry not fully specified)
- Measured Strength [1]: 0.04

Molecule: BBa_J23105: Anderson collection promoter, SEQ ID NO: 7 (DNA TTTACGGCTAGCTCAGTCCTAGGTACTATGCTAGC; listed as DNA, chemistry not fully specified)
- Measured Strength [1]: 0.24

Molecule: BBa_J23116: Anderson collection promoter, SEQ ID NO: 18 (DNA TTGACAGCTAGCTCAGTCCTAGGGACTATGCTAGC; listed as DNA, chemistry not fully specified)
- Measured Strength [1]: 0.16

Molecule: BBa_J23111: Anderson collection promoter, SEQ ID NO: 13 (DNA TTGACGGCTAGCTCAGTCCTAGGTATAGTGCTAGC; listed as DNA, chemistry not fully specified)
- Measured Strength [1]: 0.58

B1: drApoI (protein, UniProt P38483 1-229, looked up, variant E63Q)
C->U-editing enzyme APOBEC-1: MSSETGPVAVDPTLRRRIEPHEFEVFFDPRELRKETCLLYEINWGGRHSIWRHTSQNTNKHVQVNFIEKFTTERYFCPNTRCSITWFLSWSPCGECSRAITEFLSRYPHVTLFIYIARLYHHADPRNRQGLRDLISSGVTIQIMTEQESGYCWRNFVNYSPSNEAHWPRYPHLWVRLYVLELYCIILGLPPCLNILRRKQPQLTFFTIALQSCHYQRLPPHILWATGLK
- Kan resistance Frequency [2, 6]: 3.8E−8
- Kan resistant CFU/mL [2, 6]: 6.0E+1 CFU/mL
- Kan resistance Frequency [2, 7]: 5.2E−7
- Kan resistant CFU/mL [2, 7]: 6.5E+2 CFU/mL
- Kan resistance Frequency [2, 8]: 6.6E−7
- Kan resistant CFU/mL [2, 8]: 1.2E+3 CFU/mL
- Amp resistant CFU/mL (cell viability) (E. coli; [6]): 1.6E+9 CFU/mL
- Amp resistant CFU/mL (cell viability) (E. coli; [7]): 1.3E+9 CFU/mL
- Amp resistant CFU/mL (cell viability) (E. coli; [8]): 1.8E+9 CFU/mL
- Rif resistance Frequency (E. coli genome [3]; [6]): 4.5E−7
- Rif resistant CFU/mL (E. coli genome [3]; [6]): 7.6E+2 CFU/mL
- Rif resistance Frequency (E. coli genome [3]; [7]): 3.0E−7
- Rif resistant CFU/mL (E. coli genome [3]; [7]): 4.0E+2 CFU/mL
- Rif resistance Frequency (E. coli genome [3]; [8]): 3.4E−7
- Rif resistant CFU/mL (E. coli genome [3]; [8]): 5.9E+2 CFU/mL
- Fos resistance Frequency (E. coli genome [4]; [6]): 2.0E−6
- Fos resistant CFU/mL (E. coli genome [4]; [6]): 3.3E+3 CFU/mL
- Fos resistance Frequency (E. coli genome [4]; [7]): 2.7E−6
- Fos resistant CFU/mL (E. coli genome [4]; [7]): 3.5E+3 CFU/mL
- Fos resistance Frequency (E. coli genome [4]; [8]): 1.9E−6
- Fos resistant CFU/mL (E. coli genome [4]; [8]): 3.4E+3 CFU/mL
- Tet resistance Frequency [5, 6]: 1.1E−7
- Tet resistant CFU/mL [5, 6]: 1.8E+2 CFU/mL
- Tet resistance Frequency [5, 7]: 4.6E−7
- Tet resistant CFU/mL [5, 7]: 6.3E+2 CFU/mL
- Tet resistance Frequency [5, 8]: 2.1E−7
- Tet resistant CFU/mL [5, 8]: 3.7E+2 CFU/mL
